We go through 50 sequences from the supplement of paper PMC9112550, “Optimization of the antimicrobial peptide Bac7 by deep mutational scanning” (BMC Biology, 2022).

The series deals with Escherichia coli TOP10. Description: shrunken log2 fold change of peptide-encoding DNA abundance (4.5 h post-induction vs induction); higher = less antimicrobial activity (less host growth inhibition). The following applies: time post-induction: 4.5 h; library: site-saturation at positions 5, 18, 19, 20.
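Further: peptides expressed intracellularly from a pBAD plasmid library in pooled LB shake-flask culture, induced with 0.3% L-arabinose, DNA abundance read by NGS, three biological replicates, DESeq2 with apeglm shrinkage.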

On to RRIRIRPPRLPRPRPRPFWCPRP, for which the “shrunken log2 fold change” value is -0.014.

For the sequence RRIRSRPPRLPRPRPRPLPVPRP, the “shrunken log2 fold change” value worked out at 0.0687. As for RRIRCRPPRLPRPRPRPLTQPRP, the figure is 0.189. Consider RRIRTRPPRLPRPRPRPLFQPRP, for which the “shrunken log2 fold change” value is -0.348. Consider RRIRQRPPRLPRPRPRPSKCPRP, for which the “shrunken log2 fold change” value was -0.719.

For the sequence RRIRPRPPRLPRPRPRPYYIPRP, the “shrunken log2 fold change” value was -0.88. As for RRIRKRPPRLPRPRPRPHMLPRP, the figure is -0.105.

On to RRIRVRPPRLPRPRPRPKVWPRP, for which the “shrunken log2 fold change” value amounted to 0.409. As for RRIRYRPPRLPRPRPRPDFEPRP, the figure is -0.0141; as for RRIRSRPPRLPRPRPRPGQMPRP, 0.206. As for RRIRYRPPRLPRPRPRPQWVPRP, the figure is -0.0081. Take RRIRCRPPRLPRPRPRPHKKPRP: the “shrunken log2 fold change” value was found to be 0.242. Turning to RRIRFRPPRLPRPRPRPSLSPRP, the “shrunken log2 fold change” value is -0.623. Consider RRIRHRPPRLPRPRPRPGQNPRP, for which the “shrunken log2 fold change” value was -0.226. As for RRIRWRPPRLPRPRPRPPGPPRP, the figure is 0.599; as for RRIRVRPPRLPRPRPRPVMRPRP, 0.269. In the case of RRIRTRPPRLPRPRPRPNFFPRP, the “shrunken log2 fold change” value is 0.0096. As for RRIRERPPRLPRPRPRPYAFPRP, the figure is -0.961; as for RRIRYRPPRLPRPRPRPECQPRP, 0.0129. As for RRIRRRPPRLPRPRPRPQIAPRP, the figure is 0.31. As for RRIRCRPPRLPRPRPRPVCCPRP, the figure is 0.0914. For the sequence RRIRNRPPRLPRPRPRPANKPRP, the “shrunken log2 fold change” value came out at 0.0716. As for RRIRVRPPRLPRPRPRPNYVPRP, the “shrunken log2 fold change” value was -0.254. Take RRIRGRPPRLPRPRPRPIEDPRP: the “shrunken log2 fold change” value amounted to 0.0783. As to RRIRCRPPRLPRPRPRPTWMPRP, the “shrunken log2 fold change” value was -0.18. As for RRIRTRPPRLPRPRPRPCMFPRP, the figure is -0.515.

RRIRFRPPRLPRPRPRPLFGPRP: the “shrunken log2 fold change” value is 0.0395.

For the sequence RRIRPRPPRLPRPRPRPLNIPRP, the “shrunken log2 fold change” value is -0.809. As for RRIRDRPPRLPRPRPRPHRHPRP, the “shrunken log2 fold change” value was -0.00955. As for RRIRPRPPRLPRPRPRPLHQPRP, the figure is -0.0461; as for RRIRARPPRLPRPRPRPFRVPRP, -0.19.

As for RRIRDRPPRLPRPRPRPDLAPRP, the “shrunken log2 fold change” value came to 0.814. As for RRIRRRPPRLPRPRPRPSMPPRP, the figure is -0.0915; as for RRIRERPPRLPRPRPRPSRTPRP, -0.111. Regarding RRIRARPPRLPRPRPRPHFIPRP, the “shrunken log2 fold change” value turned out to be 0.179. With RRIRWRPPRLPRPRPRPRDDPRP, the “shrunken log2 fold change” value turned out to be 0.341. As for RRIRCRPPRLPRPRPRPIPCPRP, the figure is -0.489; as for RRIRKRPPRLPRPRPRPQHFPRP, 0.0698; as for RRIRKRPPRLPRPRPRPGHVPRP, -0.165. As for RRIRERPPRLPRPRPRPVPFPRP, the figure is -0.229.

For RRIRLRPPRLPRPRPRPRDIPRP, the “shrunken log2 fold change” value is -0.54. In the case of RRIRRRPPRLPRPRPRPASYPRP, the “shrunken log2 fold change” value was -0.111.

For RRIRERPPRLPRPRPRPNTDPRP, the “shrunken log2 fold change” value was -0.554. As for RRIRKRPPRLPRPRPRPSIWPRP, the figure is -0.0618; as for RRIRERPPRLPRPRPRPHTEPRP, -0.239. As for RRIRQRPPRLPRPRPRPYNLPRP, the figure is -0.00751; as for RRIRIRPPRLPRPRPRPSGWPRP, 0.037.

On to RRIRHRPPRLPRPRPRPKKWPRP, for which the “shrunken log2 fold change” value is -0.0201. In the case of RRIRERPPRLPRPRPRPHWMPRP, the “shrunken log2 fold change” value is -0.157. As for RRIRTRPPRLPRPRPRPHFCPRP, the figure is 0.0392.
